This test addresses T1, human HER4 (hHER4, ACRO Biosystems Inc., Cat #: ER4-H5221), recombinant His-tagged (human, UniProt Q15303 26-649).
T1 construct: Bought protein; not shown: His tag
T1 sequence (looked up): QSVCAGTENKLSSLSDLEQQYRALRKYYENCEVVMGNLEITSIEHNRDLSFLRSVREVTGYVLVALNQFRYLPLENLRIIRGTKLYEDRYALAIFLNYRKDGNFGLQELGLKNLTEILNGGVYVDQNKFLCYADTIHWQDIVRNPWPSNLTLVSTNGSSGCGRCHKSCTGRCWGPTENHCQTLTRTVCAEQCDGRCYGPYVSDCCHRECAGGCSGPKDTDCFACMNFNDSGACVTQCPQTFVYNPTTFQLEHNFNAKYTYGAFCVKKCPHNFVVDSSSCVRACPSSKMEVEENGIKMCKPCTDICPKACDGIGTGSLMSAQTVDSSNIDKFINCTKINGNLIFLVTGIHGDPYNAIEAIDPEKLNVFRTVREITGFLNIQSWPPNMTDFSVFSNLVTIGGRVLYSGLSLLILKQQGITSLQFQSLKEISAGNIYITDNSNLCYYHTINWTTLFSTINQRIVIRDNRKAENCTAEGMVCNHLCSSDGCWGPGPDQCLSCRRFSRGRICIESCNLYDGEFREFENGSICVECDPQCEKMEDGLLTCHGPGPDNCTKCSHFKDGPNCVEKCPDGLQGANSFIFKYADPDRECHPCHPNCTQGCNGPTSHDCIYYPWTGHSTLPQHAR
The experiment in a line: SPR (Biacore 8K), antibody captured on Protein A chip, His-tagged hHER4 injected at 0-400 nM; response (RU) plotted against concentration [panel F]. The procedure: The cross binding activities of anti-HER3 antibodies to HER family proteins were determined by surface plasmon resonance (SPR) using Biacore (Biacore, INC, Piscataway N.J.) 8K biosensor equipped with pre-immobilized Protein A sensor chips.
Purified anti-HER3 antibodies were diluted to 2 μg/mL and then injected into the Biacore 8K biosensor at 10 μL/min for about 50 seconds to achieve a desired protein density (e.g., about 200 response units (RU)). […] The association phase lasted for 180 s and the dissociation phase lasted 400 s followed by a regeneration step with Glycine (pH 2.0, 30 μL/min for 30 seconds). For isotype control (ISO), an antibody targeting an irrelevant target protein was used.
In general terms: Surface plasmon resonance follows binding to a sensor surface in real time, without labels.

B1: Patritumab analog (antibody, V domains shown)
VH: QVQLQQWGAGLLKPSETLSLTCAVYGGSFSGYYWSWIRQPPGKGLEWIGEINHSGSTNYNPSLKSRVTISVETSKNQFSLKLSSVTAADTAVYYCARDKWTWYFDLWGRGTLVTVSS
VL: not shown
notes: also called positive control
Regarding B1, the binding result was “no binding (tested: 400 nM)”.
